T1: mutant feline IL-31 15H05 protein (Feline_IL31_15H05_mutant) (feline)
T1 sequence: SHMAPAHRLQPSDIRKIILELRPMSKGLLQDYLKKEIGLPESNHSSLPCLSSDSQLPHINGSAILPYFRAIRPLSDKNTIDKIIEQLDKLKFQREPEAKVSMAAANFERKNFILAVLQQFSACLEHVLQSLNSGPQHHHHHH

T2: wildtype feline IL-31 protein (Feline_IL31_wildtype) (feline)
T2 construct: Full length feline IL-31 with C-terminal His tag, secreted from ExpiCHO cells; also called fIL-31
T2 chain: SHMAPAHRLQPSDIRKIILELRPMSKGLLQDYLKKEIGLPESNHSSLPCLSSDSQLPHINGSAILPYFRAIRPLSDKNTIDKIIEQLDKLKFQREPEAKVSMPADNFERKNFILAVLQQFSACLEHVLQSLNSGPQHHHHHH

T3: mutant feline IL-31 11E12 protein (Feline_IL31_11E12_mutant) (feline)
T3 construct: also called feline 11E12 mutant; 11E12 IL-31 mutant
T3 chain: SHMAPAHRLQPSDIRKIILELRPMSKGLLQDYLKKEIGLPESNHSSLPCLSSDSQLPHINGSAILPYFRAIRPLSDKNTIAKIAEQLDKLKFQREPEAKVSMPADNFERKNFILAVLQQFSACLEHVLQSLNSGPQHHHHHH

T4: equine IL-31 protein (Equine_IL31) (equine)
T4 construct: Recombinant equine IL-31
T4 chain: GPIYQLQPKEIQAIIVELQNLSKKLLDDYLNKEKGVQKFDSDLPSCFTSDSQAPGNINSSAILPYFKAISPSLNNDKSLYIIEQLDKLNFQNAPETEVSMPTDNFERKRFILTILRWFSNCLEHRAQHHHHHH

T5: canine IL-31 protein (Canine_IL31) (canine)
T5 chain: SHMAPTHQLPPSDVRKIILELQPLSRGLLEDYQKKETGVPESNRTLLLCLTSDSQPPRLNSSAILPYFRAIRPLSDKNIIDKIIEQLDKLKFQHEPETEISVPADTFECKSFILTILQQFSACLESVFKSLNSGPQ

T6: wildtype feline IL-31 protein (Feline_IL31_wildtype) (feline)
T6 sequence: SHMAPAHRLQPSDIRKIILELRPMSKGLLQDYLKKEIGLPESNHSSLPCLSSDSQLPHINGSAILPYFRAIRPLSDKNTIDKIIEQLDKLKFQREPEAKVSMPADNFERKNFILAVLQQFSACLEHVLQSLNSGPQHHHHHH


Tests used:
[1] = molecular target: T1, mutant feline IL-31 15H05 protein (Feline_IL31_15H05_mutant) (feline); test: indirect ELISA, IL-31 protein coated
[2] = molecular target: T2, wildtype feline IL-31 protein …; test: indirect ELISA, IL-31 protein coated
Experimental: For the indirect ELISA method, antibody binding to wildtype and feline IL-31 15H05 mutant proteins was assessed. All nine canine monoclonal antibodies (ZIL1, ZIL8, ZIL8, ZIL11, ZIL69, ZIL94, ZIL154, ZIL159, and ZIL171) were capable of binding to wildtype feline IL-31 and binding was impacted by mutations in the mAb 15H05 epitope region confirming the correct binding phenotype determined during the initial screening used to identify them. In comparison, the 11E12 antibody bound to the wild-type feline IL-31 and its binding was not impacted by the mutations in the 15H05 epitope region as evidenced by the data in FIG. 4. To confirm binding, biacore analysis was performed using canine, feline, equine, human, feline 15H05 mutant, and feline 11E12 mutant IL-31 proteins as surfaces and a single test concentration of antibody. Similar to ELISA observations, all antibodies tested bound to wildtype feline IL-31. In agreement with the data described above in this section, mouse antibodies 11E12 and 15H05 both bound to canine and feline IL-31 surfaces. Three additional antibodies where shown to have this dual binding property, ZIL69 (partial canine binding), ZIL94, and ZIL159. From this group of nine fully canine antibodies, only ZIL1 and ZIL9 cross-reacted with equine IL-31. Of note, antibody 15H05 was the only one of all assayed herein that bound to canine, feline, and equine IL-31 indicating some level of epitope conservation across the three species. In contrast, none of the antibodies described herein bound to human IL-31. Additional biacore surfaces were used to verify ELISA observations showing differential binding of antibodies to wildtype feline IL-31 and two proteins with mutations in the 15H05 (15H05 mutant) or 11E12 (11E12 mutant) epitopes. […] In agreement with the ELISA results, all fully canine antibodies were impacted by the 15H05 mutation with the exception of ZIL94, ZIL154, and ZIL171 (partially affected). Differing results can be attributed to differences in the two assay methodologies.

[3] = molecular target: T3, mutant feline IL-31 11E12 protein …; test: SPR (Biacore), IL-31 surface, single antibody concentration
Experimental: (§1) For the indirect ELISA method, antibody binding to wildtype and feline IL-31 15H05 mutant proteins was assessed. All nine canine monoclonal antibodies (ZIL1, ZIL8, ZIL8, ZIL11, ZIL69, ZIL94, ZIL154, ZIL159, and ZIL171) were capable of binding to wildtype feline IL-31 and binding was impacted by mutations in the mAb 15H05 epitope region confirming the correct binding phenotype determined during the initial screening used to identify them. In comparison, the 11E12 antibody bound to the wild-type feline IL-31 and its binding was not impacted by the mutations in the 15H05 epitope region as evidenced by the data in FIG. 4. To confirm binding, biacore analysis was performed using canine, feline, equine, human, feline 15H05 mutant, and feline 11E12 mutant IL-31 proteins as surfaces and a single test concentration of antibody. Similar to ELISA observations, all antibodies tested bound to wildtype feline IL-31. In agreement with the data described above in this section, mouse antibodies 11E12 and 15H05 both bound to canine and feline IL-31 surfaces. Three additional antibodies where shown to have this dual binding property, ZIL69 (partial canine binding), ZIL94, and ZIL159. From this group of nine fully canine antibodies, only ZIL1 and ZIL9 cross-reacted with equine IL-31. Of note, antibody 15H05 was the only one of all assayed herein that bound to canine, feline, and equine IL-31 indicating some level of epitope conservation across the three species. In contrast, none of the antibodies described herein bound to human IL-31. Additional biacore surfaces were used to verify ELISA observations showing differential binding of antibodies to wildtype feline IL-31 and two proteins with mutations in the 15H05 (15H05 mutant) or 11E12 (11E12 mutant) epitopes.

[4] = molecular target: T4, equine IL-31 protein (Equine_IL31); test: as above
Experimental: as §1

[5] = molecular target: T2, wildtype feline IL-31 protein …; test: cell-based or functional assay
[6] = molecular target: T5, canine IL-31 protein (Canine_IL31); test: cell-based or functional assay
[7] = molecular target: T2, wildtype feline IL-31 protein …; test: cell-based or functional assay
[8] = molecular target: T5, canine IL-31 protein (Canine_IL31)
[9] = molecular target: T6, wildtype feline IL-31 protein (Feline_IL31_wildtype) (feline); test: Biacore, feline IL-31 chip, mAb 100 nM, share of points within parent mean +/-3 SD
[10] = molecular target: T6, wildtype feline IL-31 protein (Feline_IL31_wildtype) (feline)
[11] = molecular target: T2, wildtype feline IL-31 protein …; test: cell-based or functional assay
[12] = molecular target: T2, wildtype feline IL-31 protein …; test: SPR (Biacore), feline IL-31 (SEQ ID NO 157)
Experimental: The affinity with which candidate mAbs bind canine and feline IL-31 was determined using surface plasmon resonance (SPR) on a Biacore system (Biocore Life Sciences (GE Healthcare), Uppsala, Sweden). To avoid affinity differences associated with differential surface preparation that can occur when immobilizing antibodies to surfaces; a strategy was employed where IL-31 was directly conjugated to the surface. Immobilization was obtained by amine coupling 5 μg/mL IL-31 using N-hydroxysuccinimide (NHS)/1-Ethyl-3-(3-dimethylaminopropyl) carbodiimide (EDC) chemistry. Chips were quenched with ethanolamine and the affinity with which all candidate mAbs bound to the immobilized IL-31 was evaluated. All curves were fit to a 1:1 model. […] Results for affinity measurements are described herein.
Cellular potency was assessed using feline IL-31 to stimulate pSTAT3 signalling in FCFW4 cells. IC₅₀ vlaues were calculated for each antibody as described previously in this application. […] It is worth noting that both antibodies are considered potent with IC₅₀s in the range of those antibodies previously described herein from the 15H05 lineage (FIG. 3).

Row | Binder | Binding Similarity score [9] | % Inhibition Relative to Parent (pSTAT, FCWF-4 cells) [10] | IC50, inhibition of feline IL-31 induced pSTAT3 in feline FCWF4 cells [11] | Kd [12] | kon [12] | other results
1 | ZIL159 (recombinant fully canine antibody) (antibody, V domains shown, also called CAN-ZIL159) VH: EVQLVESGGDLVKPAGSLRLSCVASGFTFSSYVMTWVRQAPGKGLQWVAGINSEGSRTAYADAVKGRFTISRDNAKNTLYLQIDSLRAEDTAIYYCATGDIVATGTSYWGQGTLVTVSS VL: SNVLTQPPSVSVSLGQTATISCSGETLNRFYTQWFQQKAGQAPVLVIYKDTERPSGIPDRFSGSSSGNIHTLTISGARAEDEAAYYCKSAVSIDVGVFGGGTHLTVFR |  |  |  |  |  | ELISA OD [1]: 1.31 OD; ELISA OD [2]: 1.6 OD; binding result [3]: no binding; binding result [4]: no binding
2 | 15H05 mouse:canine chimera (antibody) heavy: QVQLQQSAAELARPGASVKMSCKTSGYTFTSYTIHWIKQRPGQGLEWIGNINPTSGYTENNQRFKDKTTLTVDRSSNTAYLQLHSLTSEDSAVYFCARWGFKYDGEWSFDVWGAGTTVTVSSASTTAPSVFPLAPSCGSTSGSTVALACLVSGYFPEPVTVSWNSGSLTSGVHTFPSVLQSSGLYSLSSMVTVPSSRWPSETFTCNVAHPASKTKVDKPVPKRENGRVPRPPDCPKCPAPEMLGGPSVFIFPPKPKDTLLIARTPEVTCVVVDLDPEDPEVQISWFVDGKQMQTAKTQPREEQFNGTYRVVSVLPIGHQDWLKGKQFTCKVNNKALPSPIERTISKARGQAHQPSVYVLPPSREELSKNTVSLTCLIKDFFPPDIDVEWQSNGQQEPESKYRTTPPQLDEDGSYFLYSKLSVDKSRWQRGDTFICAVMHEALHNHYTQESLSHSPGK light: DIQMNQSPSSLSASLGDTITVTCRASQGISIWLSWYQQKPGNIPKVLINKASNLHIGVPPRFSGSGSGTHFTLTITSLQPEDIATYYCLQSQTYPLTFGGGTKLEINRNDAQPAVYLFQPSPDQLHTGSASVVCLLNSFYPKDINVKWKVDGVIQDTGIQESVTEQDKDSTYSLSSTLTMSSTEYLSHELYSCEITHKSLPSTLIKSFQRSEC |  |  |  |  |  | IC50, feline IL-31 signaling on the canine DH82 cell line (pSTAT3) [5]: 0.71 µg/ml; IC50 against canine IL-31 (pSTAT3; cell type not stated for this pair of values) [6]: 12.5 µg/ml; IC50, inhibition of feline IL-31-induced STAT3 phosphorylation, feline FCWF4 cells [7]: 3.11 µg/mL; IC50, inhibition of canine IL-31-induced STAT3 phosphorylation, canine DH82 cells [8]: 12.7 µg/mL
3 | A14 (antibody, V domains shown) VH: QVLLVQSGAEVRTPGASVKIFCKASGYSFTSYTIHWLRQAPAQGLEWMGNINPTSGYTENNQRFKDRLTLTADTSTNTAYMELSSLRSADTAMYYCARWGFKYDGEWSFDVWGAGTTVTVSS VL: EIQMTQSPSSLSASPGDRVTITCRASQGISIWLSWYQQKPGNIPKVLIAKASNLHIGVPSRFSGSGSGTDFTLTISSLEPEDAATYYCLQSQTYPLTFGGGTKLEIK | 8.4 | -5.4% |  |  |  | 
4 | A22 (antibody, V domains shown) VH: QVLLVQSGAEVRTPGASVKIFCKASGYSFTSYTIHWLRQAPAQGLEWMGNINPTSGYTENNQRFKDRLTLTADTSTNTAYMELSSLRSADTAMYYCARWGFKYDGEWSFDVWGAGTTVTVSS VL: EIQMTQSPSSLSASPGDRVTITCRASQGISIWLSWYQQKPGNIPKVLINKASNLHIGVPSRFSGSGSGTDFTLTISSLEPEDAATYYCLQAQTYPLTFGGGTKLEIK | 8.34 | -4.3% |  |  |  | 
5 | ZTS-5864 (antibody, V domains shown, see recheck) VH: DVQLVESGGDLVKPGGSLRLTCVASGFTFSDYAMSWVRQAPGKGLQWVAGIDSVGSGTSYADSVKGRFTISRDNAKNTLYLQMNSLKTEDTATYYCASGFPGSFEHWGQGALVTVSS VL: QSVLTQPSSVSGTLGQRITISCTGSSSNIGSGYVGWYQQVPGMGPKTVIYYNSDRPSGVPDRFSGSKSGSSGTLTITGLQAEDEADYYCSVYDRTFNAVFGGGTHLTVLG |  |  | 3.73 µg/ml | 0.571 nM | 108000 M⁻¹ s⁻¹ | IC50, feline IL-31 stimulated pSTAT3 signalling in FCFW4 cells, relative to ZTS-5865 [5]: ~3 fold
6 | ZTS-5865 (antibody, V domains shown, see recheck) VH: DVQLVESGGDLVKPGGSLRLTCVASGFTFSDYAMNWVRQAPGKGLQWVAGIDSVGSGTSYADSVKGRFTISRDNAKNTLYLQMSGLKTEDTATYYCASGFPGSFEHWGQGTLVTVSS VL: QSVLTQPSSVSGTLGQRITISCTGSSSNIGSGYVGWYQQVPGMGPKTVIYYNSDRPSGVPDRFSGSKSGSSGTLTITGLQAEDEADYYCSVYDRTFNAVFGGGTHLTVLG |  |  | 9.08 µg/ml | 2.12 nM | 76200 M⁻¹ s⁻¹ | 

From patent US20250136677A1 (ZOETIS SERVICES, published 2025)
